Test results taken from the RNAGym collection of RNA variant scans (doi:10.7554/elife.80360).

B1: HDV Ribozyme (parent)
chain: GGCCGGCAUGGUCCCAGCCUCCUCGCUGGCGCCGGCUGGGCAACAUUCCGAGGGGACCGUCCCCUCGGUAAUGGCGAAUGGGACCCA

Variants of: B1
Experiment: self-cleavage, relative activity (ratio to wild type); higher = more cleavage; co-transcriptional

Variant | self-cleavage
U23A U72A | 0.773
U23A U72C | 0.332
U23C A83G | 0.742
U23C A83C | 0.302
U23C A83U | 0.767
U23A G28U | 0.116
U23A U37G | 0.415
U23A C85G | 0.942
U23A C85A | 0.68
U23C G38A | 0.17
U23C G38C | 0.277
U23C A71U | 0.808
U23C A71C | 0.415
U23A G67U | 0.849
U23A G67C | 1.22
U23A G67A | 0.782
U23C A70C | 0.939
U23C A70G | 0.95
U23A G38C | 0.192
U23A G38U | 0.208
U23A G38A | 0.0963
U23C C41A | 0.789
U23C C41U | 0.959
U23A G53A | 0.95

Variant | self-cleavage
U23A G53U | 0.923
U23A G53C | 1.12
U23C C49A | 0.987
U23C C49U | 0.852
U23C C49G | 0.655
U23A G55A | 0.969
U23A G55C | 1.12
U23A G29A | 0.0804
U23A G29U | 0
U23A G29C | 0.0923
U23A A83G | 0.767
U23A A83U | 0.449
U23A C30A | 0.466
U23A C30U | 0.554
U23A C86U | 0.872
U23A C86G | 0.85
U23C C75A | 0.166
U23C C75U | 0.0739
U23C C62U | 1.03
U23C C62G | 0.987
U23A C44U | 0.566
U23A C44G | 0.594
U23A C44A | 0.612
U23A A70G | 0.931

Variant | self-cleavage
U23A G39A | 0.408
U23A U46C | 0.929
U23A U46A | 0.623
U23A U46G | 1.06
U23C A43U | 0.298
U23A U79A | 0.646
U23A U79C | 0.369
U23A U65C | 1.09
U23A U65G | 1.18
U23C A42C | 0.161
U23C A42U | 0.415
U23A G40C | 0.181
U23C C84G | 0.739
U23C G28C | 0.0639
U23C G28U | 0.249
U23C C33G | 0
U23C C33A | 0.0378
U23A G52U | 0.819
U23A G52C | 0.946
U23C C63A | 0.86
U23C C63U | 0.984
U23A C32A | 0.251
U23C C24A | 0.287
U23C C85A | 1.01

Variant | self-cleavage
U23A G73A | 0.575
U23A G73C | 0.554
U23A G82C | 0.326
U23A G82A | 0.266
U23A G82U | 0.425
U23A C24G | 0.113
U23C C61G | 0.945
U23C C61U | 0.975
U23C A51C | 1.08
U23A U69C | 0.942
U23A U69A | 1.01
U23A C48G | 0.898
U23A C48U | 1.21
U23C C66G | 0.923
U23C C66U | 0.95
U23A C36A | 0.177
U23C C44U | 0.554
U23A G54U | 0.937
U23C C64G | 0.76
U23C C64A | 0.743
U23C G52A | 0.906
U23A C64G | 1.03
U23A C64U | 0.935
U23C G34U | 0.145

Variant | self-cleavage
U23A G68U | 1.09
U23A G68C | 0.831
U23A G68A | 0.906
U23A C61U | 1.25
U23A C84G | 0.601
U23A C84U | 0.762
U23A A51G | 1.01
U23A U47C | 1.14
U23A C62A | 0.872
U23A A71U | 0.831
U23A A71G | 0.8
U23C A77C | 0.256
U23A C66A | 0.883
U23A C66U | 0.943
U23A C41U | 1.14
U23A G50C | 0.831
U23A G50A | 1.06
U23C A78U | 0.151
U23C A78G | 0.739
U23A G76A | 0.978
U23A G25C | 0.208
U23A C63A | 0.812
U23A C63G | 0.877
U23C C36G | 0.125

Variant | self-cleavage
U23C C36A | 0.172
U23A A56C | 0.929
U23C G50U | 0.789
U23C G50C | 0.864
U23C G50A | 0.95
U23A C26G | 0.978
U23C C58G | 0.673
U23C C58A | 1.18
U23C C58U | 0.928
U23C G40A | 0.8
U23C G40C | 0.0852
U23A C33G | 0.35
U23A G80A | 0.18
U23A G80U | 0.113
U23C C32G | 0.0415
U23A C58U | 1.25
U23A C58G | 1.34
U23A U27A | 0.675
U23C C57G | 0.6
U23C C57U | 0.743
U23A G34A | 0.121
U23A G34C | 0.339
U23A G34U | 0.149
U23C G31C | 0.141

Variant | self-cleavage
U23A A78U | 0.256
U23C G25A | 0.101
U23C G25C | 0.138
U23C G25U | 0.158
U23A A77G | 1.03
U23C G29U | 0.142
U23C G29A | 0.0665
U23C C26U | 1.26
U23C C26A | 1.11
U23C C86G | 0.95
U23C C48G | 1.05
U23C C48U | 0.806
U23C C48A | 1.12
U23C G39C | 0.244
U23C G39U | 0.716
U23A G31U | 0.271
U23A G31C | 0.44
U23A C49G | 1.16
U23A C49A | 0.538
U23C A87U | 0.953
U23C A56C | 0.942
U23C A56G | 0.87
U23A G74A | 0.465
